Source: paper PMC10378331, “Structural and Kinetic Characterization of the SpeG Spermidine/Spermine N-acetyltransferase from Methicillin-Resistant Staphylococcus aureus USA300” (Cells, 2023)

How the values were obtained:
[1] = substrate: CC(=O)SCCNC(=O)CCNC(=O)[C@H](O)C(C)(C)COP(=O)(O)OP(=O)(O)OC[C@H]1O[C@@H](n2cnc3c(N)ncnc32)[C@H](O)[C@@H]1OP(=O)(O)O; assay: DTNB colorimetric CoA assay, discontinuous; type: biochemical, Staphylococcus aureus; conditions: Assay 2, enzyme pre-incubated with spermine, co-substrate 1.5 mM spermine (acceptor and allosteric ligand), 70 mM Bicine pH 8.0, 20 mM NaCl, 0.005% Triton X-100, 22 °C, 22.0 °C
Text: (§1) DTNB colorimetric CoA assay, discontinuous on SaSpeG

[2] = substrate: NCCCCNCCCN; assay: DTNB colorimetric CoA assay, discontinuous; type: biochemical, Staphylococcus aureus; conditions: Assay 1 (standard), no pre-incubation with polyamine, 0.5 mM AcCoA, 70 mM Bicine pH 8.0, 20 mM NaCl, 37 °C, Hill fit
Text: as §1

[3] = biological target: the molecule itself; assay: crystal structure; ligand-free SaSpeG, 0.1 M NaCl, 0.1 M HEPES pH 8.0, 1.6 M ammonium sulfate; one protomer in the asymmetric unit; oligomer from symmetry-related proteins and PISA analysis

B1: SaSpeG (Staphylococcus aureus subsp. aureus USA300) (protein)
chain: MKLRALEYSDLLFVHELNNEYSIMSYWFEEPYESLTELQHLFDKHLLDESERRFIVEDENQVVGIVELVEINYIHRNCEIQIIIKPEFSGKGYAKFAFEKAIIYAFNILNMHKIYLYVDADNKKAIHIYESQGFKTEGLLKEQFYTKGKYKDAYFMSLLKSEYIL
notes: E. coli BL21(DE3); dodecamer by PISA
[1]
  K0.5: 0.29 ± 0.01 mM
  kcat: 390 s⁻¹
  kcat/Km: 1.3e+06 M⁻¹ s⁻¹
[2]
  K0.5: 4.0 ± 0.1 mM
  kcat: 3 s⁻¹
  kcat/Km: 750 M⁻¹ s⁻¹

B2: SpeG spermidine/spermine N-acetyltransferase from Staphylococcus aureus USA300 (enzyme)
chain: MKLRALEYSDLLFVHELNNEYSIMSYWFEEPYESLTELQHLFDKHLLDESERRFIVEDENQVVGIVELVEINYIHRNCEIQIIIKPEFSGKGYAKFAFEKAIIYAFNILNMHKIYLYVDADNKKAIHIYESQGFKTEGLLKEQFYTKGKYKDAYFMSLLKSEYIL
notes: SpeG spermidine/spermine N-acetyltransferase, Staphylococcus aureus USA300, UniProt A0A0H2XGJ0; gene synthesized and cloned into pMCSG21 at the SspI site; monomer ~19.8 kDa; after TEV cleavage the residues SN would remain at the N-terminus; The number of copies differs by experiment: dodecamer from crystal symmetry and PISA, trimer/tetramer by SEC; also called SaSpeG; source: E. coli BL21 (DE3) …
[3]
  stoichiometry N: 12
